Results reported in patent US20260042849A1, “PROTEASE-CLEAVABLE MOIETIES AND METHODS OF USE THEREOF” (CytomX Therapeutics, Inc., priority 2022, published 2026).
Several values for one entry are separate records, joined by “and”; a condition that tells them apart may be missing. Equal entries are not always repeated. Where two headings read alike, the source gives them in different places. Ends that are not written are not given here.

How the values were obtained:
MMP14 [1] = target: T1, MMP14 (Homo sapiens, UniProt P50281); experiment: In vitro cleavability of activatable antibodies, capillary electrophoresis; format: biochemical; parameters: key to Cleavability (%) 4h MMP14: “—” indicates below limit of quantification; conditions: for Cleavability (%) 4h MMP14: 500 nM activatable antibody, 10 nM protease, 4 hours at 37° C.; for percent activation for MMP14: Tables 6A-6C, activatable antibody format
[2] = system: human bone marrow aspirates; experiment: In situ stability in human bone marrow aspirates; format: in vitro ADME; conditions: 20 μg/mL, 37° C., 21 or 24 hours; normalized to CM 2001 cleavage
Experimental: Fresh human bone marrow aspirates from healthy donors were purchased from Stemcell Technology Inc. (Catalog No. 70502) and AllCells Inc. and were processed to lyse red blood cells and washed 5 times with buffer or serum-free media. […] An equal volume of AF647-labeled c225 activatable antibodies prepared at 40 μg/mL in serum-free RPMI media were then added to form a mixture and incubated at a final concentration of 20 μg/mL at 37° C. for 21 or 24 hours. Cells were pelleted through centrifugation for 5 min at 300× g. Supernatants were collected from each incubated mixture and transferred into a well of a 96-well PCR plate for assay by capillary electrophoresis. Each supernatant sample was mixed with Pico Sample Buffer (Perkin Elmer) containing 2-beta-mercaptoethanol at four parts sample and one part of Pico Sample Buffer and then heated at 95° C. for 10 minutes. Substrate cleavage was measured by capillary electrophoresis using a LabChip GXII Touch system (Perkin Elmer) with the HT Pico Protein Express 100 protocol (Perkin Elmer). Protein Express Assay LabChips (Perkin Elmer #760499) were set up using the protocol of the Protein Pico Assay Reagent Kit (Perkin Elmer #760498).

MMP14 [3] = target: T1, MMP14; experiment: Internally quenched peptide probe cleavage assay (Example 8); format: biochemical; conditions: 20 μM peptide probe, 20 nM protease, 37° C.
Description: (§1) The study provided herein evaluated the cleavability kinetics (i.e., pM/s and kcat/KM (M^−1 s^−1) of CMs with matriptase (MT-SP1) and matrix metalloprotease (MMP) 2 (MMP2), MMP9, and MMP14. The CMs listed in Table 10 below were presented in an internally quenched peptide probe format, rather than included in an activatable antibody format. In the internally quenched probes, the CM sequence was positioned between a 7-methoxycoumarin-4-acetyl (MCA) fluorophore and a 2,4-dinitrophenyl (DNP) quencher such that cleavage of the CM sequence produced a fluorescence signal. The probes were of the following designs: (MCA)-Gly-Ser-X1-X2-Pro-X3-Gly-Leu-X4-X5-Gly-Ser-Lys (DNP)-D-Arg (SEQ ID NO: 178) where X1 is Arg or is absent, X2 is Ser or is absent, X3 is Met or Trp, X4 is Lys, Arg, or is absent, and X5 is Ser or is absent; (MCA)-Ser-X1-Pro-X2-Gly-Leu-X3-X4-Gly-Ser-Lys (DNP)-D-Arg (SEQ ID NO: 179) where X1 is Ala, X2 is Met, X3 is Lys, and X4 is His; and (MCA)-Gly-Ser-Pro-X1-Gly-Leu-X2-Gly-Gly-Ser-Lys (DNP)-D-Arg (SEQ ID NO: 180) where X1 is Met and X2 is Lys, as indicated in Table 10. The cleavage rates (pM/s) were measured using 20 μM internally quenched peptide probe and 20 nM MT-SP1, MMP2, MMP9, or MMP14. Cleavability kinetics (i.e., pM/s and kcat/KM (M^−1 s^−1)) were measured at 37° C. in 96- or 384-well plate format in the following buffers: 50 mM TRIS-HCl (pH 7.4), 150 mM NaCl, 0.05% Tween 20 for MT-SP1, 50 mM Tris-HCl (pH 7.5), 10 mM CaCl2, 150 mM NaCl, 0.05% (w/v) Brij-35 for MMP2 and MMP9, and 50 mM HEPES (pH 6.8), 10 mM CaCl2), 0.5 mM MgCl2, 0.05% (w/v) Brij-35 for MMP14. Cleavability kinetics were determined on an Infinite 200 PRO (Tecan) multimode plate reader using a fluorescence excitation wavelength of 320 nm and an emission wavelength of 405 nm.

MMP2 [4] = target: T2, MMP2 (Homo sapiens, UniProt P08253); experiment: as above; format: biochemical; conditions: 20 μM peptide probe, 20 nM protease, 37° C.
T2 sequence (P08253 110-660): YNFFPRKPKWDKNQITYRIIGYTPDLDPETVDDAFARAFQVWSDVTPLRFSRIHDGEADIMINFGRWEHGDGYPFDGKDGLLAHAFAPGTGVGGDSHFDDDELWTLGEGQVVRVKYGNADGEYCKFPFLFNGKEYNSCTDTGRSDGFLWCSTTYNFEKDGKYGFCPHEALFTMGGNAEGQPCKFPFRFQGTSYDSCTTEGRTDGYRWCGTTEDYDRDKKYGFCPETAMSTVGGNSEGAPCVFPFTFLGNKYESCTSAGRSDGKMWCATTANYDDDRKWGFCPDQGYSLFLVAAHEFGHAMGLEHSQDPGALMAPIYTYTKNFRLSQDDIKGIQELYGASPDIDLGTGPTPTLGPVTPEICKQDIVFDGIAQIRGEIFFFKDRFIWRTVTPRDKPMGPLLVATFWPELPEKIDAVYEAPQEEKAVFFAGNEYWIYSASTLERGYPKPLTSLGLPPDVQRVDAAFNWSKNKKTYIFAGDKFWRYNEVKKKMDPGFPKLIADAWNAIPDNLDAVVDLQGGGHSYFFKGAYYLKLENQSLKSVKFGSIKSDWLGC
Description: as §1

MT-SP1 [5] = target: T3, MT-SP1 (Homo sapiens, UniProt Q9Y5Y6); experiment: as above; format: biochemical; conditions: 20 μM peptide probe, 20 nM protease, 37° C.
T3 sequence (Q9Y5Y6 615-855 limits assumed): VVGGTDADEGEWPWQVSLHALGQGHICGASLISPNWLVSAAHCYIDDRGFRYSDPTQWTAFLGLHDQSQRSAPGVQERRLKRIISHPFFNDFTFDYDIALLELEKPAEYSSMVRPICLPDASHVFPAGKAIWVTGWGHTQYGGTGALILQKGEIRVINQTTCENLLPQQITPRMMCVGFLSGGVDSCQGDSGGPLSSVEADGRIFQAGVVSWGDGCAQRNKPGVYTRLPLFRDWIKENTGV
Description: as §1

MMP9 [6] = target: T4, MMP9 (Homo sapiens, UniProt P14780); experiment: as above; format: biochemical; conditions: 20 μM peptide probe, 20 nM protease, 37° C.
Description: as §1

MMP2 [7] = target: T2, MMP2; experiment: In vitro cleavability of activatable antibodies, capillary electrophoresis; format: biochemical; parameters: purchased R&D Systems 902-MP; conditions: for Cleavability (%) 4h MMP2: 500 nM activatable antibody, 10 nM protease, 4 hours at 37° C.
MT-SP1 [8] = target: T3, MT-SP1; experiment: as above; format: biochemical; parameters: purchased R&D Systems 3946-SEB
Experimental: The studies provided herein evaluate the in vitro cleavability of activatable antibodies containing exemplary CMs that include a substrate cleavable by a matrix metalloprotease (MMP) and/or a substrate cleavable by a matriptase (MT-SP1).
Each activatable antibody (500 nM) was incubated with 10 nM of the indicated single protease for 4 hours at 37° C. Human recombinant proteases were purchased from R&D Systems: MT-SP1 (catalog No: 3946-SEB), MMP2 (catalog No: 902-MP), MMP9 (catalog No: 911-MP), and MMP14 (catalog No: 918-MP). […] Protease concentrations were determined by active site titration. Activity assays were performed in the following buffers: 50 mM TRIS-HCl (pH 7.4), 150 mM NaCl, 0.05% Tween 20 for MT-SP1, 50 mM Tris-HCl, 10 mM CaCl2), 150 mM NaCl, 0.05% (w/v) Brij-35, pH 7.5 for MMP2 and MMP9, and 50 mM HEPES (pH 6.8), 10 mM CaCl2), 0.5 mM MgCl2 for MMP14. Following incubation, the presence of cleavage product was determined by capillary electrophoresis for each protease enzyme using a LabChip GXII Touch system (Perkin Elmer) with the HT Protein Express 100 protocol (Perkin Elmer). LabChip GXII Touch HT Chips (Perkin Elmer #760499) were set up using the protocol of the Protein Express Assay Reagent Kit (Perkin Elmer #CLS960008).

recombinant EGFR = recombinant EGFR (Homo sapiens, UniProt P00533); experiment: Solid-phase binding assay (ELISA) of anti-EGFR activatable antibodies; conditions: compared to activatable antibodies with control CM 2001
[9] = system: H292 (human lung cancer-derived cell line) subcutaneous xenograft tumors; experiment: In vivo efficacy in mouse H292 xenograft model; parameters: species or system nu/nu mice; conditions: 9 mg/kg intraperitoneally on day 1, H292 xenograft
Experimental: In this study, H292 (human lung cancer-derived cell line) subcutaneous xenograft tumors in female nu/nu mice of 6-8 weeks of age were grown to an average volume of 95-247 mm^3. […] The mice were then randomized into groups of 8 mice each and each group was dosed intraperitoneally on day 1 with 9 mg/kg of the indicated test article.

[10] = mouse
MMP9 [11] = target: T4, MMP9; experiment: In vitro cleavability of activatable antibodies, capillary electrophoresis; format: biochemical; parameters: purchased R&D Systems 911-MP; key to Cleavability (%) 4h MMP9: “—” indicates below limit of quantification; conditions: for Cleavability (%) 4h MMP9: 500 nM activatable antibody, 10 nM protease, 4 hours at 37° C.
[12] = Tables 6A-6C, activatable antibody format

T4 sequence (P14780 107-707 limits assumed): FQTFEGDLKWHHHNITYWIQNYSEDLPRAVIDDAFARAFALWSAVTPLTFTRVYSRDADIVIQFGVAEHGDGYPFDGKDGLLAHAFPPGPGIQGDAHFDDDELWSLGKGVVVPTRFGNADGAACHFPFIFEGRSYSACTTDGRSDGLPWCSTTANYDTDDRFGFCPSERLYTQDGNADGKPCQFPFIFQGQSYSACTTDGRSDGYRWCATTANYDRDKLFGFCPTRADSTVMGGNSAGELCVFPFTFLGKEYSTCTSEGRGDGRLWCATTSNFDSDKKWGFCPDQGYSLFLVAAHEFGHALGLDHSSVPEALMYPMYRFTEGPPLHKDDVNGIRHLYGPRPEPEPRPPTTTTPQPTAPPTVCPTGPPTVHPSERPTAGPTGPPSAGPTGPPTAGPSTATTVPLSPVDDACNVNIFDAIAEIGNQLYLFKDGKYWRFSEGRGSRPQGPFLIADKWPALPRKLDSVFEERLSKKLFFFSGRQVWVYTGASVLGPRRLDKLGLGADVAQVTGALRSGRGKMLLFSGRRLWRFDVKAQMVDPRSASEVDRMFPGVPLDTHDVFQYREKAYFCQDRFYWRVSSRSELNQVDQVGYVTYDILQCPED

Substance | Cleavability (%) 4h MMP14 (MMP14 [1]) | Probe Cleavage (pM/s) MMP14 (MMP14 [3]) [pM/s] | Probe Cleavage (pM/s) MMP2 (MMP2 [4]) [pM/s] | Probe Cleavage (pM/s) MT-SP1 (MT-SP1 [5]) [pM/s] | Probe Cleavage (pM/s) MMP9 (MMP9 [6]) [pM/s] | Cleavability (%) 4h MMP2 (MMP2 [7]) | Cleavability (%) 4h MMP9 (MMP9 [11]) | also measured
APMGLKH [CM 7046, also tested as internally quenched peptide probe] | 95.3% | 114000 | 81700 | 3330 | 115000 | 95.7% | 45.1% | percent activation for MMP14 (MMP14 [1]): greater than 90%; in situ cleavage in human bone marrow aspirates (FIG. 3) [2]: demonstrated a resistance to cleavage in situ in the bone marrow; percent activation for MMP2 (MMP2 [7]; [12]): greater than 90%; Cleavability (%) 4h MT-SP1 (MT-SP1 [8]): 5.37%; effect of CM on apparent masking efficiency (recombinant EGFR): increasing the apparent masking efficiency; in vivo efficacy (mean tumor volume, FIG. 2A) [9]: comparable with the activatable antibody with the control CM 2001; in vivo stability versus control CMs [10]: higher in vivo stability; percent activation for MMP9 (MMP9 [11]; [12]): greater than 30%
GPWGLL [CM 7043] | 77.6% |  |  |  |  | 86.0% | 96.2% | in vivo stability versus control CMs [10]: higher in vivo stability; In Vivo % Activation (nu/nu, day 7) ([10]; ip, 10 mg/kg): 44%
GPYGLL [CM 7048] | 66.3% |  |  |  |  | 96.1% | 98.3% | 
ISSGLLSGRSDNH [CM 2001, reference compound] | 82.2% and 80.2% and 92.9% |  |  |  |  | 50.6% and 44.1% and 52.2% | — | Cleavability (%) 4h MT-SP1 (MT-SP1 [8]; 500 nM activatable antibody, 10 nM protease, 4 hours at 37° C.): 30.5%
PMGLK (also: internally quenched fluorophore/quencher probe, groups not placed) [CM 7019, tested as internally quenched peptide probe] |  | 5950 | 4690 | 46.1 | 6080 |  |  | 
PMGLKS (also: internally quenched fluorophore/quencher probe, groups not placed) [CM 7018, tested as internally quenched peptide probe] |  | 153000 | 119000 | 14100 | 133000 |  |  | 
PWGL [CM 7041, also tested as internally quenched peptide probe] | — |  |  |  |  | 15.8% | 12.3% | 
PWGLRS [tested as internally quenched peptide probe] |  | 4380 | 3800 | 1230 | 3830 |  |  | 
PWGLS [CM 7045] | 15.6% |  |  |  |  | 40.2% | 74.5% | percent activation for MMP14 (MMP14 [1]): greater than 10%; effect of CM on apparent masking efficiency (recombinant EGFR): increasing the apparent masking efficiency
PYGL [CM 7047, also tested as internally quenched peptide probe] | — |  |  |  |  | 27.5% | 19.2% | 
RSPWGL [tested as internally quenched peptide probe] |  | 9580 | 11700 | 2390 | 25500 |  |  | 
